Measurements reported in paper PMC5967865 (eLife, 2018).
Positions count from the first letter of the chain named. Blank lines part the entries; values can stand above or below the molecule they belong to.

Experiments:
human GlyT1 = biological target: T1, human GlyT1 (Homo sapiens, UniProt P48067); format: binding; conditions: 6 nM [3H]-Org24598, labelled compound, 4°C, LMNG; citrate pH 6.4 (buffer assignment by 'respectively'); with and without sybodies
T1 construct: gene SLC6A9; Sf9 cells; LMNG/CHS; purified with Cmpd1
T1 sequence (P48067 1-706): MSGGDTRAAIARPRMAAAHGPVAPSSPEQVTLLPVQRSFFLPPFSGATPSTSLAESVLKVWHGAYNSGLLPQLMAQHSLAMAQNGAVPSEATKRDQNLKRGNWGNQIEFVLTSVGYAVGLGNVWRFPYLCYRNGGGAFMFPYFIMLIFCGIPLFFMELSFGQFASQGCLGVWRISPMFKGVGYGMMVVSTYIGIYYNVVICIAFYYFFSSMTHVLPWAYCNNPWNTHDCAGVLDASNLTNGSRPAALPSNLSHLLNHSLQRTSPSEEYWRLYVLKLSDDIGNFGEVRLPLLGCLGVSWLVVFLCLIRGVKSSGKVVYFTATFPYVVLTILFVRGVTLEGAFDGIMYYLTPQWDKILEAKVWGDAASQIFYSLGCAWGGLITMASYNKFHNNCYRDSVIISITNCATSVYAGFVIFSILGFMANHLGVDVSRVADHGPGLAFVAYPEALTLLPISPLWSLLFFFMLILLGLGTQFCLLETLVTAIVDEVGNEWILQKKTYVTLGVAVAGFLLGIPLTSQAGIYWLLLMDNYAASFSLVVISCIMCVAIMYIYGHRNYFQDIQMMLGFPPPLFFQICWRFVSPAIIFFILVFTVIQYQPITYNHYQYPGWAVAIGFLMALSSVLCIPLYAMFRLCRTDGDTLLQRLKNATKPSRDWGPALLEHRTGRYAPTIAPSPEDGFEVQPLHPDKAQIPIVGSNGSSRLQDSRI

GFP [GFP: P42212] = assay: pull-down; nanobody or sybody displayed on ribosomes (PUREfrexSS; 10^6 mRNA of 3K1K spiked into 10^12 mRNA of the non-randomized convex sybody), pulled down with biotinylated GFP or MBP immobilized on magnetic beads; retrieved mRNA reverse transcribed and quantified by qPCR against the input mRNA
Human ENT1(2–456) [1] = biological target: T2, Human ENT1(2–456) (Homo sapiens, UniProt Q99808, biotin on the Avi-tag (in vivo, co-transfected E. coli BirA); glycosylation reduced with PNGaseF and Endo-alpha-N-acetylgalactosaminidase); assay: cell-based or functional assay
Human ENT1(2–456) [2] = biological target: T2, Human ENT1(2–456); assay: SPR; Biacore T200, 18°C; biotinylated ENT1 (about 1000 RU) on SA sensor, sybody up to 475 nM as analyte; 20 mM HEPES pH 7.5, 150 mM NaCl, 0.001% LMNG, 1.25 µM DOPS; 50 µl/min; 1:1 model; conditions: both partners purified
Human GlyT1 (human) [3] = biological target: Human GlyT1 (human) (UniProt P48067)
Human GlyT1 (human) [4] = biological target: Human GlyT1 (human) (UniProt P48067); assay: SPR; Biacore T200, 18°C; biotinylated GlyT1 (about 300 RU) on SA sensor, sybody up to 2 µM as analyte; 20 mM Citrate pH 6.4, 150 mM NaCl, 0.004% LMNG; 50 µl/min; 1:1 model; single cycle for Sb_GlyT1#6; KD from kinetics or from equilibrium as the column says

T2 sequence (Q99808 2-456): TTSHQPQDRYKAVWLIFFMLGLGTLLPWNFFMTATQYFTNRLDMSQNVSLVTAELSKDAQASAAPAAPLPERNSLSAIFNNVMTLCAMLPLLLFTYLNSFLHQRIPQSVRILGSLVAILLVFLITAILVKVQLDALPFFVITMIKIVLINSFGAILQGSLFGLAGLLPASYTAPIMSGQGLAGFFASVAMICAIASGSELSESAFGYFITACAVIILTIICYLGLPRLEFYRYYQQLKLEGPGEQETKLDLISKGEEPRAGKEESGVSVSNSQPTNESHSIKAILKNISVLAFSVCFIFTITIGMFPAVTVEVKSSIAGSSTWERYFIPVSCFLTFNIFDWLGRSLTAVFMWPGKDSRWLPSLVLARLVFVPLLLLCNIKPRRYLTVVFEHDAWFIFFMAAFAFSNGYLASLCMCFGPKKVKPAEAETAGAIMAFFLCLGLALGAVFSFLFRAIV

Molecule: CN(CC[C@@H](Oc1ccc(C(F)(F)F)cc1)c1ccccc1)CC(=O)O [Org24598]
scintillation proximity assay (SPA-TS) with [3H]-Org24598 (human GlyT1): SPA-TS analysis using the commercially available tritiated inhibitor Org24598

mRNA recovery (percent of input mRNA) (GFP [GFP: P42212]): 84.6%
Molecule: 3K1K nanobody (VHH)

SPA signal (fold increase) of [3H]-NBTI binding at 30.1°C (Human ENT1(2–456) [1]): 7 fold | Kd (Human ENT1(2–456) [2]): 40 nM | koff (Human ENT1(2–456) [2]): 0.00744 s⁻¹ | kon (Human ENT1(2–456) [2]): 186000 M⁻¹ s⁻¹
B1: Sb_ENT1#1 (VHH)
VHH: QVQLVESGGGLVQAGGSLRLSCAASGFPVEYNTMYWYRQAPGKEREWVATIESWGWFTWYADSVKGRFTISRDNAKNTVYLQMNSLKPEDTAVYYCEVGVGHNYAGRGTQVTVS
notes: concave sybody; source: purified (Ni-NTA, SEC); not shown: Myc, C-terminal, kept
ΔTm(SPA-TS): shift of the apparent melting temperature of ENT1, read by binding of [3H]-NBTI (Human ENT1(2–456) [1]): 6.1 °C

SPA signal (fold increase) of [3H]-Org24598 binding at 19°C (Human GlyT1 (human) [3]): 1.2 fold | ΔTm(SPA-TS): shift of the melting temperature of GlyT1, read by binding of [3H]-Org24598 (Human GlyT1 (human) [3]): 0.9 °C | Kd (Human GlyT1 (human) [4]): 307 nM | koff (Human GlyT1 (human) [4]): 0.0577 s⁻¹ | kon (Human GlyT1 (human) [4]): 188000 M⁻¹ s⁻¹
B2: Sb_GlyT1#1 (VHH)
VHH: QVQLVESGGGLVQAGGSLRLSCAASGFPVYYSHMLWYRQAPGKEREWVAAIKSLGAKTWYADSVKGRFTISRDNAKNTVYLQMNSLKPEDTAVYYCTVGVGTNYYGQGTQVTVS

SPA signal (fold increase) of [3H]-Org24598 binding at 19°C (Human GlyT1 (human) [3]): 1.1 fold | ΔTm(SPA-TS): shift of the melting temperature of GlyT1, read by binding of [3H]-Org24598 (Human GlyT1 (human) [3]): 1.5 °C | Kd (Human GlyT1 (human) [4]): 2520 nM | koff (Human GlyT1 (human) [4]): 0.0928 s⁻¹ | kon (Human GlyT1 (human) [4]): 36800 M⁻¹ s⁻¹
B3: Sb_GlyT1#2 (VHH)
VHH: B2 VHH with Y31H, S32R, H33S, L54N, K57G, Y105W

SPA signal (fold increase) of [3H]-Org24598 binding at 19°C (Human GlyT1 (human) [3]): 1.5 fold | ΔTm(SPA-TS): shift of the melting temperature of GlyT1, read by binding of [3H]-Org24598 (Human GlyT1 (human) [3]): 2.6 °C | Kd (Human GlyT1 (human) [4]): 81.9 nM | koff (Human GlyT1 (human) [4]): 0.0372 s⁻¹ | kon (Human GlyT1 (human) [4]): 454000 M⁻¹ s⁻¹
B4: Sb_GlyT1#5 (VHH)
VHH: QVQLVESGGGLVQAGGSLRLSCAASGFPVMNRWMAWYRQAPGKEREWVAAVASYGETTRYADSVKGRFTISRDNAKNTVYLQMNSLKPEDTAVYYCNVKDWGWWTRAYDYWGQGTQVTVS

SPA signal (fold increase) of [3H]-Org24598 binding at 19°C (Human GlyT1 (human) [3]): 1.1 fold | ΔTm(SPA-TS): shift of the melting temperature of GlyT1, read by binding of [3H]-Org24598 (Human GlyT1 (human) [3]): 1.7 °C | Kd (Human GlyT1 (human) [4]): 154 nM
B5: Sb_GlyT1#3 (VHH)
VHH: QVQLVESGGGLVQAGGSLRLSCAASGFPVWNNGMAWYRQAPGKEREWVAAIASRGRSTVYADSVKGRFTISRDNAKNTVYLQMNSLKPEDTAVYYCYVNVGSHYEGQGTQVTVS

SPA signal (fold increase) of [3H]-Org24598 binding at 19°C (Human GlyT1 (human) [3]): 1.6 fold | ΔTm(SPA-TS): shift of the melting temperature of GlyT1, read by binding of [3H]-Org24598 (Human GlyT1 (human) [3]): 8.8 °C | Kd (Human GlyT1 (human) [4]): 0.494 nM | koff (Human GlyT1 (human) [4]): 4.99e-05 s⁻¹ | kon (Human GlyT1 (human) [4]): 100000 M⁻¹ s⁻¹
B6: Sb_GlyT1#6 (VHH)
VHH: QVQLVESGGGLVQAGGSLRLSCAASGFPVVYYEMYWYRQAPGKEREWVAAITSSGWYTHYADSVKGRFTISRDNAKNTVYLQMNSLKPEDTAVYYCNVKDWGASWKQYDYWGQGTQVTVS

SPA signal (fold increase) of [3H]-Org24598 binding at 19°C (Human GlyT1 (human) [3]): 1.8 fold | ΔTm(SPA-TS): shift of the melting temperature of GlyT1, read by binding of [3H]-Org24598 (Human GlyT1 (human) [3]): 10 °C | Kd (Human GlyT1 (human) [4]): 9.18 nM | koff (Human GlyT1 (human) [4]): 0.000185 s⁻¹ | kon (Human GlyT1 (human) [4]): 20100 M⁻¹ s⁻¹
B7: Sb_GlyT1#7 (VHH)
VHH: B6 VHH with V30Y, Y31A, T52S, W56T, Y57W, T58A, H59G, K106A, Q107Y

SPA signal (fold increase) of [3H]-Org24598 binding at 19°C (Human GlyT1 (human) [3]): 1.5 fold | ΔTm(SPA-TS): shift of the melting temperature of GlyT1, read by binding of [3H]-Org24598 (Human GlyT1 (human) [3]): 2.1 °C | Kd (Human GlyT1 (human) [4]): 476 nM
B8: Sb_GlyT1#4 (VHH)
VHH: QVQLVESGGGLVQAGGSLRLSCAASGFPVYAYVMAWYRQAPGKEREWVAAIKSQGVSTYYADSVKGRFTISRDNAKNTVYLQMNSLKPEDTAVYYCYVYVGTSYTGQGTQVTVS
